# Reference: the DeepSol protein solubility set
# Test: soluble on expression in E. coli; label from the status in PepcDB or PDB records
row,Sequence,soluble on expression in E. coli
1,DHYACVSSGGQCLYSACPIFTKIQGTCYRGKAKCCK,soluble
2,DIHPYSVSYSWDKQVEDEDHMEVFPAGSSFPSTKLITLNRTGDFSMAASYTDITQLPPNTPEQIANWEITGVQLPEGQDSVPVKLKLRCDPSGLHTIEEAYTIEDIEVEEPIPLPEDAPEDAEQEFKKVTKTVKKDDLTIVAHTFGLDAKKLNELIEKENEMLAQDKLVAETEDRKNTLE,not soluble
3,DKFFIWGKRIDYNALKTTLIKKAQDENLLHFTPKISLVEDGFIRSISLGSDLTRPFSLIVDDKGLYIDPNKASKLEELLQNEIFDENMLNRAKNIIKILLENRFSKYNGLKHEDLKINAKIGQKIILIPAQVEDDASMILGGFGLSTLDLLKEVRAKNQDAYIIFKPHPDVLSGNRVGLKDETLILEFCDEIVKDCSIDSAIKIADEIHTITSTSGFDALLRAKKVFTYGMPFYAGWGLTKDKYRCERRIRKLSLEELVAGALIIYPRY,not soluble
4,DNSSFDSLSPEPKSRFAMLDDVKILANGLLQLGHGLKDFVHKTKGQINDIFQKLNIFDQSFYDLSLQTSEIKEEEKELRRTTYKLQVKNEEVKNMSLELNSKLESLLEEKILLQQKVKYLEEQLTNLIQNQPETPEHPEVTSLKTFVEKQDNSIKDLLQTVEDQYKQLNQQHSQIKEIENQLRRTSIQEPTEISLSSKPRAPRTTPFLQLNEIRNVKHDGIPAECTTIYNRGEHTSGMYAIRPSNSQVFHVYCDVISGSPWTLIQHRIDGSQNFNETWENYKYGFGRLDGEFWLGLEKIYSIVKQSNYVLRIELEDWKDNKHYIEYSFYLGNHETNYTLHLVAITGNVPNAIPENKDLVFSTWDHKAKGHFNCPEGYSGGWWWHDECGENNLNGKYNKPRAKSKPERRRGLSWKSQNGRLYSIKSTKMLIHPTDSESFE,not soluble
5,DPVFLDIFKSDKEDYEQRLRGAIREELNAFWQAKQPMIGLYLGEAMVGVACINSPDETLASDRFWHWRLKMLLNAGYFSTKQMMQKEHTVLAAVPLKIFHFLSFIAVHPLHQQHGFGHYLMAAVNTVLDEHPDSEGVAVYATSGKFKEFFKQVDYHTVKEVTVGNV,not soluble
6,DQAGKSPNAVRYHGGDEIILQGFHWNVVREAPNDWYNILRQQAATIAADGFSAIWMPVPWRDFSSWSDGSKSGGGEGYFWHDFNKNGRYGSDAQLRQAASALGGAGVKVLYDVVPNHMNRGYPDKEINLPAGQGFWRNDCADPGNYPNDCDDGDRFIGGDADLNTGHPQVYGMFRDEFTNLRSQYGAGGFRFDFVRGYAPERVNSWMTDSADNSFCVGELWKGPSEYPNWDWRNTASWQQIIKDWSDRAKCPVFDFALKERMQNGSIADWKHGLNGNPDPRWREVAVTFVDNHDTGYSPGQNGGQHHWALQDGLIRQAYAYILTSPGTPVVYWDHMYDWGYGDFIRQLIQVRRAAGVRADSAISFHSGYSGLVATVSGSQQTLVVALNSDLGNPGQVASGSFSEAVNASNGQVRVWRSGTGSGGGEPGALVSVSFRCDNGATQMGDSVYAVGNVSQLGNWSPAAALRLTDTSGYPTWKGSIALPAGQNEEWKCLIRNEANATQVRQWQGGANNSLTPSEGATTVGRL,soluble
7,DRFVYTCNECKHHVETRWHCTVCEDYDLCITCYNTKNHDHKM,not soluble
8,DSNALWMPYVNGRIRVIVMRNGGGGIFRFIPGPDSLKELETCFETPLEVPVREMAGAYGWRYMKAVSAEELETVLPSFFASGDRAVLLEVETPRFENAPVLKSYFTYISGESYPVNR,not soluble
9,DVAVRTLSDVPSAAPQNLSLEVRNSKSIMIHWQPPAPATQNGQITGYKIRYRKASRKSDVTETLVSGTQLSQLIEGLDRGTEYNFRVAALTINGTGPATDWLSAETFESDLDETRVPEV,soluble
10,DVKIEKLKDNLYVYTTYNTFNGTKYAANAVYLVTDKGVVVIDCPWGEDKFKSFTDEIYKKHGKKVIMNIATHSHDDRAGGLEYFGKIGAKTYSTKMTDSILAKENKPRAQYTFDNNKSFKVGKSEFQVYYPGKGHTADNVVVWFPKEKVLVGGCIIKSADSKDLGYIGEAYVNDWTQSVHNIQQKFSGAQYVVAGHDDWKDQRSIQHTLDLINEYQQKQKASN,soluble
11,DVSQKIKDIDDQIQQLLLKQRHLLSKMASSMKSLKNCQKELISTQILQFEAQNMDVSMNDVIGFFNEREADLK,soluble
12,DYKDDDDKLAAAQYPVVNTNYGKIRGLRTPLPNEILGPVEQYLGVPYASPPTGERRFQPPEPPSSWTGIRNTTQFAAVCPQHLDERSLLHDMLPIWFTANLDTLMTYVQDQNEDCLYLNIYVPTEDDIHDQNSKKPVMVYIHGGSYMEGTGNMIDGSILASYGNVIVITINYRLGILGFLSTGDQAAKGNYGLLDQIQALRWIEENVGAFGGDPKRVTIFGSGAGASCVSLLTLSHYSEGLFQKAIIQSGTALSSWAVNYQPAKYTRILADKVGCNMLDTTDMVECLRNKNYKELIQQTITPATYHIAFGPVIDGDVIPDDPQILMEQGEFLNYDIMLGVNQGEGLKFVDGIVDNEDGVTPNDFDFSVSNFVDNLYGYPEGKDTLRETIKFMYTDWADKENPETRRKTLVALFTDHQWVAPAVATADLHAQYGSPTYFYAFYHHCQSEMKPSWADSAHGDEVPYVFGIPMIGPTELFSCNFSKNDVMLSAVVMTYWTNFAKTGDPNQPVPQDTKFIHTKPNRFEEVAWSRYNPKDQLYLHIGLKPRVRDHYRATKVAFWLELVPHLHNLNEIFQYVSTTTKVPPPDMT,soluble
13,DYKLFITEGYEVGRVNGLAVIGESAGIVLPIIAEVTPSMSKSEGRVIATGRLQEIAREAVMNVSAIIKKYTGRDISNMDVHIQFVGTYEGVAGDSASISIATAVISAIEGIPVDQSVAMTGSLSVKGEVLPVGGVTQKIEAAIQAGLKKVIIPKDNIDDVLLDAEHEGKIEVIPVSRINEVLEHVLEDGKKKNRLMSKFKELELAAV,soluble
14,EAGAPCGRISFALRYLYGSDQLVVRILQALDLPAKDSNGFSDPYVKIYLLPDRKKKFQTKVHRKTLNPIFNETFQFSVPLAELAQRKLHFSVYDFDRFSRHDLIGQVVLDNLLELAEQPPDRPLWRDILEGGSEKADLGELNFSLCYLPTAGLLTVTIIKASNLKAMDLTGFSDPYVKASLISEGRRLKKRKTSIKKNTLNPTYNEALVFDVAPESVENVGLSIAVVDYDCIGHNEVIGVCRVGPEAADPHGREHWAEMLANPRKPVEHWHQLVEEKTLSSFTKGGKGLSEKENSE,soluble
15,EAPFTLKVNTLPLNFDKAEHHRKFQIHINVSYIGERPNSNMVIVDVKMVSGFIPVKPSVKKLQDQSNIQRTEVNTNHVLIYIEKLTNQTMGFSFAVEQDIPVKNLKPAPVKVYDYYETDEFAIEEYSAPFSSDS,soluble
16,EDAWEANDPLGSLSIRYLEAAQDSQWHRELLLAGTDINHHVFRDLVTPRNPRSRFSFAMYLKEQGRMFDFGLLGRPASRHEWSDYLAWVSRQVDSQTCFNTPVTGIDPVLRNGRLHEVRVCTPQTCFTTRNVVLSSGSAPRIPHAFEALLGPTLFHTSQFLTRLQAFGEYLPKRWLVLGSGQSASESVLELVSRDHAIEV,not soluble
17,EEKVVAEQQADGTWLMDGWISIRKASNLLEHDLVDEAERYSTLGGYLLWQFGYIPAAGEQITVDGLIFEIVSVNKHNIGKVRVHRTQ,soluble
18,EEPEHSYDNSWGMGYGSSNSRSYGSQNSRSYGSPRTPKLPKHSNKPAIALNVGDRVNHEKYGLGTVTKVDKMAPADSVTIDFGSSGTVRLMLIGSVPMEKL,not soluble
19,EEYSKAELVVREYVASEGREFFISFEIPEYDALVGFVRLRFPKEPFIEVLRDAALIRELHVYGRAVPIGQSSDAFQHRGFGERLLKEAEEIAKEEYDRIAVISGVGVRDYYRKLGYRLRQGYMVKKL,not soluble
20,EFGEPAPANAESSSVAALKIGKVGNFGDCTGTLVADQWVLTARHCLESVNNEGTQARIGGKVYDADSWALSPVSDAGLLHLTEKVTDATPAKVSRDIPTPGQTGTLYGWSSSSSLARSGQLPMAKMVVKELLGGGPSQGTPSEGAPGGATPGEVAPGGAAPSETVPSESQAESIPAGTESIPADGAMMPMIQSAILDAHSVSGAGMQGGDSGGPFFVDGKLAGLATAGTANGDPDLPSPSAAITTLAGTADWIDGVTSGRDTKSVLTAENTPAPPKTIQTSADH,not soluble
21,EFILVQADTPSSPSIDQVEPYSSTAQVQFDEPEATGGVPILKYKAEWRAVGEEVWHSKWYDAKEASMEGIVTIVGLKPETTYAVRLAALNGKGLGEISAASEFKTQPVREPSAPKLEGQMGEDGNSIKVNLIKQDDGGSPIRHYLVRYRALSSEWKPEIRLPSGSDHVMLKSLDWNAEYEVYVVAENQQGKSKAAHFVFRTSAQPTAIPANGSPTSGL,soluble
22,EGSARFMPELTARAGFAFIPSIAIIKNKVFEPDDPQELEAYQSVLGYTPGIRGNLKVSSFSGHMLADYHPFKNAFRVTAGLYFNRPQINAKVQLINQNTGQSIMNDQSTLNPNNMPVITIKDKDNPADKVSIQPSSTAEVEASVHLGRTVQPYIGIGYGFAVPVSRVSFFADLGMLFSGKAQISSPNVIAGDPNLLIDFSEDAQEAVYSTQILPVLNIGVSIRLF,not soluble
23,EHEHNYHPNAVAAGLRAGRTRSIGLVIPDLENTSYTRIANYLERQARQRGYQLLIACSEDQPDNEMRCIEHLLQRQVDAIIVSTSLPPEHPFYQRWANDPFPIVALDRALDREHFTSVVGADQDDAEMLAEELRKFPAETVLYLGALPELSVSFLREQGFRTAWKDDPREVHFLYANSYEREAAAQLFEKWLETHPMPQALFTTSFALLQGVMDVTLRRDGKLPSDLAIATFGDNELLDFLQCPVLAVAQRHRDVAERVLEIVLASLDEPRKPKPGLTRIKRNLYRRGVLSRS,soluble
24,EHGWCGHLCPLGAAYGVIGRKSLLRVTAVRREDCTKCMDCFYVCPEPEVLRQPLKEGDRRVMVQNCISCGRCLDVCPEQVFEFKNRLNVKNID,not soluble
25,EITPLIFQKQTTEPVENLRTYTALEMEGRDIYIREGCNVCHSQMIRPFRAETERYGHYSVAGESVWEHPFLWGSKRTGPDLARVGQRYSDEWHRVHLINPRDVVPESNMPGFPWLEENVLDGELTSKKIAIFRDNFGVPYTEEDVKNASEEVKGKTEMDALIAYLQSLGH,not soluble
26,EKATENSPLVMIEYSSPNTNKPLHLGHVRNNLLGNALANVMAANGNKVVKTNIVNDRGIHICKSMLAWLKYGNGETPESSGKKGDHLIGDYYVAFDKHYKAEVKELTAQYQAEGLNEEEAKAKAEANSPLMLEAREMLRKWEANDPEIRALWKKMNDWVYAGFDETYKMMGVSFDKIYYESNTYLEGKEKVMEGLEKGFFYRKEDNSVWADLTAEGLDHKLLLRGDGTSVYMTQDIGTAKLRFQDYPINKMIYVVGNEQNYHFQVLSILLDKLGFEWGKGLVHFSYGMVELPEGKMKSREGTVVDADDLMEAMIETAKETSAELGKLDGLTQEEADNIARIVGLGALKYFILKVDARKNMTFNPKESIDFN,not soluble
27,EKKYIVGFKQTMSAMSSAKKKDVISQKGGKVEKQFKYVNAAAATLDEKAVKELKKDPSVAYVEEDHIAHEY,soluble
